T1: TNF-beta (human, UniProt P01374 35-205)
T1 construct: also called TNFβ; Tumour Necrosis Factor-beta
T1 sequence (looked up): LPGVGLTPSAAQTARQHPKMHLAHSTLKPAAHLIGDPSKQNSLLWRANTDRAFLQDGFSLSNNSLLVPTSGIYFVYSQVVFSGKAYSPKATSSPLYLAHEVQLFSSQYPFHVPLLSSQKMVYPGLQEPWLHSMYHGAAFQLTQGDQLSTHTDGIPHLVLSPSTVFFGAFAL

T2: Fas ligand (human, UniProt P48023 134-281, limits assumed)
T2 sequence (looked up): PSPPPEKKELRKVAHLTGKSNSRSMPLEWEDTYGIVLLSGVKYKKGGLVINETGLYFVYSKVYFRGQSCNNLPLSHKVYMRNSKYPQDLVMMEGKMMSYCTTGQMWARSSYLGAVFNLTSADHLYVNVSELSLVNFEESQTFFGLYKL


Tests used:
[1] = molecular target: T3, membrane-bound B Lymphocyte Stimulator on U937 plasma membrane preparations (human, UniProt Q9Y275 1-285); assay: phage ELISA
T3 construct: Natural protein in plasma membrane fractions of the human cell line U937 coated on ELISA plates; also called U937 plasma membranes; U937 membranes

TNF-alpha = molecular target: T4, TNF-alpha (human, UniProt P01375 77-233); assay: phage ELISA
T4 construct: also called TNFα; TNF-α

TNF-beta = molecular target: T1, TNF-beta; assay: phage ELISA
Fas ligand = molecular target: T2, Fas ligand; assay: phage ELISA
TRAIL = molecular target: T5, TRAIL (human, UniProt P50591 114-281); assay: phage ELISA
T5 construct: also called TNF-related apoptosis inducing ligand

[2] = molecular target: T6, B Lymphocyte Stimulator, soluble form (human) (human, UniProt Q9Y275 134-285, biotinylated with NHS-biotin where used as biotinylated B Lymphocyte Stimulator); assay: phage competition ELISA
T6 construct: Coated on plastic, captured on streptavidin plates, amine-coupled to a CM5 chip or free in solution, depending on the assay; also called BLyS; immobilized B Lymphocyte Stimulator

T5 sequence (P50591 114-281 limits assumed): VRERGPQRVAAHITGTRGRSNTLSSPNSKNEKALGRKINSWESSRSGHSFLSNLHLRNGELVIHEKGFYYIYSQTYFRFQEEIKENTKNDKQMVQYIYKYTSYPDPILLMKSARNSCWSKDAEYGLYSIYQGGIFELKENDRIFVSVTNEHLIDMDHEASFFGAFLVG
T4 sequence (P01375 77-233 limits assumed): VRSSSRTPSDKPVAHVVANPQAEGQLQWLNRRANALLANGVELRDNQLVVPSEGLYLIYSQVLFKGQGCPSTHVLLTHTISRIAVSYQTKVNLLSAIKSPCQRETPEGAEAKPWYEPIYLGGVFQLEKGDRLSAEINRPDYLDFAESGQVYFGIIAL

Row | binding result [1] | binding result (TNF-alpha) | binding result (TNF-beta) | binding result (Fas ligand) | binding result (TRAIL) | binding result [2] | Binder
1 | binds | no binding | no binding | no binding | no binding | binds | I031C03 (scFv) scFv: QMQLVQSGAEVRKPGSSVKVSCKASGGSFSSHVFSWVRQAPGQGLEWVGGITPKFATPNYAQKFQHRVTITADELTRTVFMDLSGLRSEDTAVYYCARGYDSSAFRAFDIWGQGTLVTVSSGGGGSGGGGSGGGGSAQSVLTQPPSVSAAPGQKVTISCSGSSSNIGNNYVSWYQQFPGTAPKLLIYDNNNRPSGVPDRFSGSKSGTSATLGITGLQTGDEADYYCGTWDRSLSVVVFGGGTKVTVLG
2 | binds | no binding | no binding | no binding | no binding | binds | I012A06 (scFv) scFv: QVQLQESGPGVVKPSQTLSLTCTVSGVSISSDSYYWSWIRQPAGKGPEWIGRIYPTGSTNYNPSLKSRVTISVDTSKNQFSLQLTSVTAADTAVYYCARGRWDYDLLTGEHLGYYFDYWGRGTLVTVSSGGGGSGGGGSGGGGSALSSELTQDPAVSVALGQTVRITCQGDTLRNYYASWYQQKPGQAPVLVIHSRNNRPSGIPDRFSGSSSGTTASLTITGSQAEDEADYYCNSRDSSGNVIFGGGTKLTVLG
3 | binds | no binding | no binding | no binding | no binding | binds | I050A12 (scFv) scFv: EVQLVQSGAEVKKPGSSVKVSCKASGDTFSHYAINWVRQAPGQGLEWMGGIIPTFNAVKYAQKFQGRATITADGSTSTAYMELNSLRSEDTAVYYCATAPYDLLTHYFHYFDYWGQGTMVTVSSGGGGSGGGGSGGGGSALSSELTQDPAVSVTLGQTVRITCQGDSLRSYYPSWYQQKPGQAPVLVIYPKNIRPSGIPDRFSGSSSGNTASLTITGAQAEDEADYYCNSRASSGNHYVFATGTKLTVLG
4 | binds | no binding | no binding | no binding | no binding | binds | I028A06 (scFv) scFv: QVQLVESGGGLIQPGGSLRLSCAASGFSFGSYAMSWIRQAPGKGLEWVSTSTGRGGSTYYADSVKGRFTISRDNAKNSLYLQMNSLRAEDAAVYYCARGGDYDILTGLYYYGMDVWGKGTMVTVSSGGGGSGGGGSGGGGSSYVLTQPPSVSGTPGQRVTISCSGGRSNIGSNTVKWYQQLPGTAPKLLIYGNDQRPSGVPDRFSGSKSGTSASLAITGVQAEDEADYYCQSYDSSLRGSRVFGTGTKVTVLG
5 | binds | no binding | no binding | no binding | no binding | binds | I031G08 (scFv) scFv: QVQLVQSGAEVKKPGSSVKVSCRASGGSFIDDSINWLRQAPGQGLEWVGGTIPLANRANYAQKFRDRATITADELTATVFLELTSLRSDDTALYYCARSSPPKWYDALTGHSSYHSAMDVWGRGTLVTVSSGGGGSGGGGSGGGGSAQSVLTQPPSASGTPGQRVTISCSGTNSNIGGNTVNWYQQLPGTAPRLLIYSNNQRPSGVPDRFSGSKSGTSASLAISGLQSEDEADYYCAARDDRLNAHVVFGGGTKVTVLG
6 | binds | no binding | no binding | no binding | no binding | binds | I031F09 (scFv) scFv: QVQLVQSGAEVKKPGASVKVSCTVSGDSFSRHGISWVRQAPGQGLEWMGWISVYNGDTKYAQKVQGRVTMTTDTSTNTVYMELRRLRSDDTAVYYCARDEGRDLLTGYYWPNFFDSWGRGTLVTVSSGGGGSGGGGSGGGGSALSYVLTQPPSASGTPGQRVTISCSGSRPNIGGNTVNWYQQLPGAAPKLLIYSNSQRPSGVPDRFSGSKYGTSASLAISGLQSDDEADYYCAAWDDSLTGPVFGGGTKLTVLG
7 | binds | no binding | no binding | no binding | no binding | binds | I031G11 (scFv) scFv: QVQLVQSGAEVKKPGASVKVSCTVSGDSFSRHGISWVRQAPGQGLEWMGWISVYNGDTKYAQKVQGRVTMTTDTSTNTVYMELRRLRSDDTAVYYCARDEGRDLLTGYYWPNFFDSWGRGTLVTVSSGGGGSGGGGSGGGGSALSYVLTQPPSVSGTPGQKVTISCSGSRPNIGGNTVNWYQQLPGAAPKLLIYSNSQRPSGVPDRFSGSKYGTSASLAISGLQSDDEADYYCAAWDDSLTGPVFGGGTKLTVLG
8 | binds | no binding | no binding | no binding | no binding | binds | I031F02 (scFv) scFv: QVQLVQSGAEVRKPGSSVKVSCKASGGSFSSHVFSWVRQAPGQGLEWVGGITPKFATPNYAQKFQHRVTITADELTRTVFMDLSGLRSEDTAVYYCARGYDSSAFRAFDIWGQGTMVTVSSGGGGSGGGGSGGGGSAQSVLTQPPSVSGAPGQRVTISCTGSSSNIGAGYDVQWYQQLPGTAPKLLIHGNNNRPSGVPDRFSGSKSGTSASLAITGLQDEDEADYYCQSYDSSLSFSGYVFGTGTKVTVLG
9 | binds | no binding | no binding | no binding | no binding | binds | I031C07 (scFv) scFv: EVQLVQSGAEVKKPGSSVKVSCRASGGSFIDGSINWLRQAPGQGLEWVGGTIPLANRANYAQKFRDRVTITADELTAIVFLELTSLRSDDTALYYCARSSPPRWYDALTGDSSYHSAMDVWGQGTMVTVSSGGGGSGGGGSGGGGSAQSALTQPPSASGSPGQSVTISCSGTSSDIGDSNSVSWYQQHPGKAPKLLIYEVTKRPSGVPDRFAGSRSDNTASLTVSGLQTEDEADYYCSSSAARNHLVFGGGTKVTVLG
10 | binds | no binding | no binding | no binding | no binding | binds | I050B11 (scFv) scFv: QVQLVQSGVEVKKPGASVKVSCKASGYTFSNHGISWVRQAPGQGLEWVGWISGHDDSTKYAQKFQGRVTMTADTSTSTAYIELRSLKSDDTAVYYCARPFYDTLTSYVFQYFDHWGQGTMVTVSSGGGGSGGGGSGGGGSALETTLTQSPDTLSLSPGERATLSCRASQSVTRGWVAWYQQKPGQAPRLLMYGTSRRATGVPDRFSGSESGTDFTLTISRLEPEDFAVYYCQQYATSPRTFGQGTRLEIKR

Reference: patent publication US20110293610A1 (published 2011)
